Test results from patent US20240117334A1, “FACTOR B PROTEASES” (Vertex Pharmaceuticals Incorporated, priority 2021, published 2024).
Numbering of substitutions follows the chain as printed. Names and notes keep the numbering of the source. Read-outs that look alike come from different tables or passages of the source.

How the values were obtained:
[1] = test system: EGVD/AE-ACT (SEQ ID NO: 53); assay: Second order rate constant k*app with EGVD/AE-ACT serpin bait; type: biochemical
Procedure: Selected chymase-based engineered proteases were tested to measure the activity of these proteases, by using an active site titration method based on reaction with the inhibitory serpin bait, followed by HPLC analysis to quantitate the active fraction. All references in this Example, including Table 9, to engineered proteases are depicted in chymotrypsin numbering. See Table 6 for the chymotrypsin numbering key for the modified protease domain of chymase. The HPLC analysis detects a shift in the measured peak when the serpin bait is present, an indication that the protease is binding the bait and therefore active. Briefly, a working concentration of 24 μM of serpin bait was prepared from stock solution, with 50 μM of low molecular weight heparin for antithrombin (AT)-based baits. Protease solutions were prepared by using 30 μL of a 5 μM working solution. Reaction mixtures were incubated for 2 hours at 37° C., and each reaction mixture (protease alone or protease with bait) was analyzed by HPLC using standard protocols. All protease alone samples were run first, then followed by the protease with serpin bait samples. A summary of the results for the proteases tested is summarized in Table 9 below. kcat/Km was measured using EGVD/AE-QF (SEQ ID NO: 52) and second order rate constant K*app was measured using EGVD/AE-ACT (SEQ ID NO: 53).

Human Factor B = Human Factor B (Homo sapiens, UniProt P00751); assay: Human Factor B cleavage EC50 in 80% human plasma (Table 10A); type: biochemical
Sequence of Human Factor B (P00751 26-764): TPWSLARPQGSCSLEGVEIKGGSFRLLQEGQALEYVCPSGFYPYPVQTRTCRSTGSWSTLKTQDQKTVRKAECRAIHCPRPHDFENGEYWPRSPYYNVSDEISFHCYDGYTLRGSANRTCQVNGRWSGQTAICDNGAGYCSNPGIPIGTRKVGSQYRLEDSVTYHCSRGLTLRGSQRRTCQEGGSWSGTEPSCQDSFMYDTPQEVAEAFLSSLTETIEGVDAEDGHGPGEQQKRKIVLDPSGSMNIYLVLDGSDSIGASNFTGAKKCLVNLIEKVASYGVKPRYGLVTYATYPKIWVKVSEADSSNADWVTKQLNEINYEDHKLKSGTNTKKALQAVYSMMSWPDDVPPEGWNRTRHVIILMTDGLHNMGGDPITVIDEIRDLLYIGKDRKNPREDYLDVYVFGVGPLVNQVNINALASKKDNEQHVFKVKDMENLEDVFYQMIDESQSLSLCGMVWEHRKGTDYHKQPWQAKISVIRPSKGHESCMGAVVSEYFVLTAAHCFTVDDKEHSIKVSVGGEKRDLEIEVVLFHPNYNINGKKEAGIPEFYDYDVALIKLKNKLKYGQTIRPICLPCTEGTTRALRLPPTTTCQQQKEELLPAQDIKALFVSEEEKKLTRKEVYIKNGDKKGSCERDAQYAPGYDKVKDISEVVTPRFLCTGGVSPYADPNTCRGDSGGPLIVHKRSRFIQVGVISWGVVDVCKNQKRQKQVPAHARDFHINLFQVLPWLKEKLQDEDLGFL
Procedure: Cleavage of Factor B by various engineered proteases was evaluated. Engineered chymase-, MTSP-1-, and uPA-based proteases were tested. All references in this Example, including Tables 10A, 10B, 11A, and 11B, to engineered proteases are depicted in chymotrypsin numbering. The chymotrypsin numbering key for the modified protease domains of engineered proteases are found in Tables 2, 4, and 6 for uPA, MTSP-1, and chymase, respectively. These experiments were also performed to evaluate the stability of non-naturally occurring chymases in various media, including cynomolgus monkey vitreous humor, human plasma, and phosphate buffered saline (PBS). Briefly, Factor B was diluted into an assay buffer and incubated at 37° C. with naturally occurring (wild type) and non-naturally occurring (engineered) proteases in vitreous humor, plasma, or PBS, and the reactions were quenched with HCl at various time points. The time points tested for chymase include T=0 which used 6 hours pre-incubation, T=2 hours which used 4 hours pre-incubation, T=4 hours which used 2 hours pre-incubation, and T=6 hours which used 0 hours pre-incubation. Assaying of the sample was performed with ELISA, or alpha screen for human C3 cleavage, using standard protocols.
A summary of the results is presented in Tables 10A-10B below, showing the various tested proteases, the concentration of the protease used in nM and the EC50 of human Factor B cleavage. Table 10 presents human Factor B cleavage by various non-naturally occurring chymase-based engineered proteases, tested in 80% human plasma, compared against a chymase comprising the mutation string […]. Blank cells indicate that a test was not performed for a particular protease mutation string.

serpins = assay: Serpin inhibition tests of chymase-based engineered proteases; type: biochemical
Procedure: Inhibition tests were carried out using chymase-based engineered proteases. Various serpins, which are capable of inhibiting protease activity, were used to test whether these could be used for adequate inhibition of the tested chymase-based engineered proteases, to enable selection of an engineered protease resistant to inhibition in plasma. All references in this Example to engineered proteases are depicted in chymotrypsin numbering. The chymotrypsin numbering key for the modified protease domains of engineered proteases are found in Tables 2, 4, and 6 for uPA, MTSP-1, and chymase, respectively.

[2] = Second order rate constant (k*) for inhibition by plasma, extrapolation of half-life in 100% plasma; type: in vitro ADME
Procedure: Briefly, a baseline chymase having the modifications C22S/A226R was used. The concentration of the baseline chymase and the tested chymase-based engineered proteases, listed in Table 11B below, were used at 50 nM, and another tested chymase C22S/L99R/F173Y/K192R/S218L/A226R was used at 25 nM. For the baseline chymase, a time course of protease activity in the presence of plasma was measured using 4.2 uM CPQ2-ITLLSA-K(5FAM)-K-PEG8-K(biotin)-NH2 (SEQ ID NO: 17)/21 uM Neutravidin at 37° C.

[3] = Half-life in 50% human plasma of chymase-based engineered proteases; type: in vitro ADME; details: EGVD′AE substrate
Procedure: Table 10B presents human Factor B cleavage by various engineered chymase-, MTSP-1-, or uPA-based proteases, tested in mouse or human plasma. For ELISA analysis of Factor B cleavage, briefly, anti-Ba was used, and Bb was detected with anti-Bb. A dynamic range of 25-1600 pM was used. Half-life in 50% human plasma was also calculated for various chymase-based engineered proteases.

[4] = test system: Factor B depleted human serum spiked with human Factor B, rabbit or chicken RBCs; assay: Factor B add-back hemolysis assay; type: biochemical; details: MTSP-1 scaffold, read-out: Hu fB Add-Back EC50
Procedure: Hemolysis assays were performed to evaluate the hemolytic activity of various lots of Factor B, a lot obtained from CompTech as compared to a lot expressed in-house. Briefly, Factor B depleted human serum was used, and plasma purified or recombinant human Factor B was used for the add-back. Rabbit red blood cells (RBCs) or chicken RBCs were washed in GVB/Mg/EGTA, and the depleted serum was spiked with Factor B. The RBC lysis was then monitored with CVF/FD/human Factor B convertase. These were analyzed to create standard curves from which the Factor B lots were compared. FIGS. 5-6 depict a bar graph of controls used for the hemolysis assay and the standard curves measured from the tested engineered proteases from the Factor B add-back hemolysis assay, respectively. […] This engineered protease was tested at two concentrations (samples 1 and 2). All references in this Example to engineered proteases are depicted in chymotrypsin numbering. The chymotrypsin numbering key for the modified protease domains of engineered proteases are found in Tables 2, 4, and 6 for uPA, MTSP-1, and chymase, respectively.

[5] = Plasma Inhibitor: plasma antichymotrypsin (plasma ACT)
[6] = chymase-based engineered proteases, no plasma stated, read-out: fB Cleavage EC50
[7] = read-out: fB Cleavage, 80% plasma EC50, chymase-based, 80% human plasma

B1: C22S/A226R: chymase-based engineered protease, baseline chymase (protein, listed as Homo sapiens)
chain: IIGGTESKPHSRPYMAYLEIVTSNGPSKFCGGFLIRRNFVLTAAHCAGRSITVTLGAHNITEEEDTWQKLEVIKQFRHPKYNTSTLHHDIMLLKLKEKASLTLAVGTLPFPSQFNFVPPGRMCRVAGWGRTGVLKPGSDTLQEVKLRLMDPQACSHFRDFDHNLQLCVGNPRKTKSAFKGDSGGPLLCAGVAQGIVSYGRSDAKPPRVFTRISHYRPWINQILQAN
- k*app EGVD/AE-ACT (SEQ ID NO: 53) [1]: 77
- fB Cleavage, 80% plasma EC50 (nM) (Human Factor B; chymase-based, 80% human plasma): none
- kapp (serpins; Plasma Inhibitor: ACT): 1045 M⁻¹ s⁻¹
- kapp (serpins; Plasma Inhibitor: alpha-2-marcroglobin (A2M)): 812 M⁻¹ s⁻¹
- calculated t1/2 (in 100% plasma) ([2]; extrapolated from k*): 1.58 min
- k* ([2]; inhibition by plasma, 37° C.): 7.32E−5 %^−1s^−1

B2: F41V/L99H/G151V/F173Y/Y215K/R217G/A226R: chymase-based engineered protease (protein, listed as Homo sapiens)
chain: B1 chain with S7C, F29V, L86H, G137V, F157Y, Y198K, R200G
- k*app EGVD/AE-ACT (SEQ ID NO: 53) [1]: 649

B3: C22S: chymase-based engineered protease, chymotrypsin numbering (protein, listed as Homo sapiens)
chain: B1 chain with R207A
- k*app EGVD/AE-ACT (SEQ ID NO: 53) [1]: 30.2
- kapp (serpins; [5]): 31166 M⁻¹ s⁻¹

B4: C22S/F173L/Y215H/A226R (protein, listed as Homo sapiens)
chain: B1 chain with F157L, Y198H
- EC50 (Human Factor B; [6]): 5.99 µM

B5: C22S/V138I/L160V/S189T/A226R (protein, listed as Homo sapiens)
chain: B1 chain with V125I, L146V, S176T
- EC50 (Human Factor B; [6]): 7.13 µM

B6: C22S/V138L/A226R (protein, listed as Homo sapiens)
chain: B1 chain with V125L
- EC50 (Human Factor B; [6]): 3.48 µM

B7: C22S/S218I/A226R (protein, listed as Homo sapiens)
chain: B1 chain with S201I
- t1/2 in 50% human plasma (min) (EGVD′AE)(SEQ ID NO: 13) [3]: 7.8 min
- EC50 (Human Factor B; [6]): 0.83 µM

B8: C22S/F173Y/A226R (protein, listed as Homo sapiens)
chain: B1 chain with F157Y
- t1/2 in 50% human plasma (min) (EGVD′AE)(SEQ ID NO: 13) [3]: 5.9 min
- EC50 (Human Factor B; [6]): 0.65 µM
- EC50 (Human Factor B; [7]): 21 µM

B9: C22S/D175N/A226R (protein, listed as Homo sapiens)
chain: B1 chain with D159N
- t1/2 in 50% human plasma (min) (EGVD′AE)(SEQ ID NO: 13) [3]: 6.2 min
- EC50 (Human Factor B; [6]): 0.564 µM
- EC50 (Human Factor B; [7]): 7.77 µM

B10: C22S/A220S/A226R (protein, listed as Homo sapiens)
chain: B1 chain with A203S
- EC50 (Human Factor B; [6]): 5.56 µM

B11: C22S/A190S/A226R (protein, listed as Homo sapiens)
chain: B1 chain with A177S
- t1/2 in 50% human plasma (min) (EGVD′AE)(SEQ ID NO: 13) [3]: 4.2 min
- kapp (serpins; [5]): 1599 M⁻¹ s⁻¹

B12: C22S/V138T/A190S/V213A/A226R (protein, listed as Homo sapiens)
chain: B1 chain with V125T, A177S, V196A
- EC50 (Human Factor B; [6]): 6.71 µM

B13: C22S/V138A/G145D/S189T/A190S/A226R (protein, listed as Homo sapiens)
chain: B1 chain with V125A, G132D, S176T, A177S
- EC50 (Human Factor B; [6]): 3.81 µM

B14: C22S/A226R/F228A (protein, listed as Homo sapiens)
chain: B1 chain with F209A
- EC50 (Human Factor B; [6]): 5.07 µM

B15: C22S/V138A/S189T/A226R/F228M (protein, listed as Homo sapiens)
chain: B1 chain with V125A, S176T, F209M
- EC50 (Human Factor B; [6]): 1.77 µM

B16: C22S/V138L/S189T/A190G/A226R (protein, listed as Homo sapiens)
chain: B1 chain with V125L, S176T, A177G
- EC50 (Human Factor B; [6]): 4.16 µM

B17: C22S/V138S/S189T/A226R/F228M (protein, listed as Homo sapiens)
chain: B1 chain with V125S, S176T, F209M
- EC50 (Human Factor B; [6]): 2.98 µM

B18: C22S/V138A/A226R (protein, listed as Homo sapiens)
chain: B1 chain with V125A
- EC50 (Human Factor B; [6]): 2.94 µM

B19: C22S/V138A/S189T/A226R (protein, listed as Homo sapiens)
chain: B1 chain with V125A, S176T
- EC50 (Human Factor B; [6]): 4.42 µM

B20: MTSP-1 (protein, listed as Homo sapiens)
chain: VVGGTDADEGEWPWQVSLHALGQGHICGASLISPNWLVSAAHCYIDDRGFRYSDPTQWTAFLGLHDQSQRSAPGVQERRLKRIISHPFFNDFTFDYDIALLELEKPAEYSSMVRPICLPDASHVFPAGKAIWVTGWGHTQYGGTGALILQKGEIRVINQTTCENLLPQQITPRMMCVGFLSGGVDSCQGDSGGPLSSVEADGRIFQAGVVSWGDGCAQRNKPGVYTRLPLFRDWIKENTGV
- EC50 ([4]; [Protease]high 400 nM): 0.0322 µM
- EC50 ([4]; [Protease]high 4000 nM): 0.0373 µM
